Molecular target: His-tagged WRN (E84A) (human) (UniProt Q14191)
Sequence of UniProt Q14191 (Q14191 whole entry E84A): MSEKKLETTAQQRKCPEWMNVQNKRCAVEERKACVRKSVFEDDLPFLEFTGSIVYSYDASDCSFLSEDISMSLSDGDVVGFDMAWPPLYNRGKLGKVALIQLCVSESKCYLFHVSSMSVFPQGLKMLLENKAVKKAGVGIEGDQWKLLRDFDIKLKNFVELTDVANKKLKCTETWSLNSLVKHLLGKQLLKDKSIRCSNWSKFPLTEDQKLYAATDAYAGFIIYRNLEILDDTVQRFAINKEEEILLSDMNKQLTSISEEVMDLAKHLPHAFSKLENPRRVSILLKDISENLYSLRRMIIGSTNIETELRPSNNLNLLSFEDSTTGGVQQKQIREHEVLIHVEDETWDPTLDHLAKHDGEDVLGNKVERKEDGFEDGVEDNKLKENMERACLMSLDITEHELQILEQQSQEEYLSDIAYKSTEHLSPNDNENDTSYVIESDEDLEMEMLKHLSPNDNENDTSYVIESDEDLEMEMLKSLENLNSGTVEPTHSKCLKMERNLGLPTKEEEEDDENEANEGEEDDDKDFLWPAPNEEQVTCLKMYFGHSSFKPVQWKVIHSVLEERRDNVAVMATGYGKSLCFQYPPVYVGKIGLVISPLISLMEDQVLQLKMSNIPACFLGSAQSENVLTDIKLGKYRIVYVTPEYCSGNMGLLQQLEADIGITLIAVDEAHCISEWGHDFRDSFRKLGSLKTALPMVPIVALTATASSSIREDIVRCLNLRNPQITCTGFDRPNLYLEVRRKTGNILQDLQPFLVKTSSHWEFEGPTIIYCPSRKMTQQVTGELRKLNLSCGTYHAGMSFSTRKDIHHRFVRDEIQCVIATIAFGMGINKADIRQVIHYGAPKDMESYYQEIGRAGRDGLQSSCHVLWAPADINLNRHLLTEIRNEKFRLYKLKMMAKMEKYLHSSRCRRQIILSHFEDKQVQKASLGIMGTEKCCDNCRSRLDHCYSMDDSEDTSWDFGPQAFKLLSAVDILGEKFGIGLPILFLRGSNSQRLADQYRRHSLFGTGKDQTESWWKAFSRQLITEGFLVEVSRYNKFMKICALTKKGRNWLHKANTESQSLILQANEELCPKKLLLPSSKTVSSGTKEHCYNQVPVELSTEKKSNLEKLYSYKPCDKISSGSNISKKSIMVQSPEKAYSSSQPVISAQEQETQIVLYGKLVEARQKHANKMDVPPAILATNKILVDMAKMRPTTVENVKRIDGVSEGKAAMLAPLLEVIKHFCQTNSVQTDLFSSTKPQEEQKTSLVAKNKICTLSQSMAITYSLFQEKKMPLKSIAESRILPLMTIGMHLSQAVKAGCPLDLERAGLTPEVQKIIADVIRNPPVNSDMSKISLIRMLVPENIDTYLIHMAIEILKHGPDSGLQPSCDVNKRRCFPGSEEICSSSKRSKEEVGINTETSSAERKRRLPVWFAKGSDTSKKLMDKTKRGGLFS

- unwinding of the telomeric D-loop substrate by WRN (E84A) (3.3 nM) preincubated with DNA-PKcs (16.7 nM), native gel; 3.3% unwound in the absence of DNA-PKcs: 66%
Substance: DNA-PKcs, the catalytic subunit of DNA-PK (from UniProt P78527 1-4128) (enzyme)
